In the supplement of paper PMC9170038:

Tested on: MS2 coat protein
Assay: apparent KD of MS2 coat protein; designed switch direction (-1 OFF switch, 1 ON switch): -1; higher = weaker reporter binding
Outline: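 For each design, the apparent KD is the median over clusters of curves fitted to normalised cluster fluorescence. Clusters held RNA switches with common flanks, transcribed on Illumina chips by stalled E. coli RNA polymerase. These were titrated with SNAP-549-labelled MS2 coat protein, doubling from 0.7 or 1.5 nM to 3 µM, without input, with 200 uM small-molecule ligand, or with an oligonucleotide input.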

[1] = input ligand: microRNA oligo, concentration not stated
[2] = Eterna round: R95, input ligand: microRNA oligo, concentration not stated
[3] = Eterna round: R95, input ligand: FMN 200 uM
[4] = Eterna round: R95, input ligand: none

Sequence	apparent KD of MS2 coat protein (input ligand: FMN 200 uM)	apparent KD of MS2 coat protein [1]	apparent KD of MS2 coat protein (input ligand: none)	apparent KD of MS2 coat protein [2]	apparent KD of MS2 coat protein [3]	apparent KD of MS2 coat protein [4]
AGCGUGGAGACAGGAUAUGAGAAUAGAUAGAACUCAGAAGGGUCACAUGAGGAUCACCCAUGUAAAGUCUUGAGGCUGAGUGGU [Prohibition 6 - Jieux - Exclusion NG 1] (Eterna round: R96, puzzle: Exclusion NG 1)	153 nM	36.4 nM	45.2 nM	–	–	–
GACCUAUAGGUAGGAUAUCAUUGCGAUUAGCUAUGAGAAGGGCCACAUGAGGAUCACCCAUGUCCUCCAAUUAACCAUAAGGUC [Fiskers ExNg1 - 6] (Eterna round: R96, puzzle: Exclusion NG 1)	38.5 nM	26.7 nM	37.3 nM	–	–	–
CGUAAGCUAGGAUAUGCUUUGGGAAAGCAUUCCUUCGAUAAACUUGAGGAUCACCCAAGUAGAAGGAGCUUACC [salish99_ex2_r4_009] (Eterna round: R97, puzzle: Exclusion 2)	11.7 nM	–	11.5 nM	–	–	–
UUUAUAUAGUAAGGAUAUGUAUUAUUGUUAUCAACAGAAGGUACUGACAUGAGGAUCACCCAUGUUUUAGUGUGGGCAUGUAGU [JMF's solution 96] (Eterna round: R96, puzzle: Exclusion NG 1)	425 nM	277 nM	446 nM	–	–	–
UAUUAGUAAGGAUAUGCGACGUAGGACGAAAGUCCUACGUCGCAGAAGGUACAUGAGGAUCACCCAUGUCUAUU [Mod of Fisker 11 - Jieux - Exclusion 4] (Eterna round: R97, puzzle: Exclusion 4)	20.5 nM	–	18.7 nM	–	–	–
CUUUUGUGAGGAUAUUAGUAGUAAAUAAAUAAAAUUAUUACUGAGAAGGUACAUGAGGAUCACCCAUGUUCCUU [Salish 062 v21] (Eterna round: R97, puzzle: Exclusion 4)	12.8 nM	–	19.9 nM	–	–	–
AGUAGGAGAGGAUAUACAUGAAGUCGAAAGACUUCAACUCAACAUGAGGAUCACCCAUGUAGAAGGCUCCUACA [Omei Ex2 BD A6] (Eterna round: R97, puzzle: Exclusion 2)	132 nM	–	25.8 nM	–	–	–
AAGAUUAGGAAAGGAUAUAAAGAGAAACAAAGUGCACAUGAGGAUCACCCAUGUACUGACACGCGUUAGAAGGUUCCAGUCCUC [Eternabot solution 40] (Eterna round: R96, puzzle: Exclusion NG 2)	18.1 nM	15.5 nM	25.4 nM	–	–	–
CCGGAAAGGAAGGAUAUGCUAGACGAGAGUCUAGCAGAAGGUCCUACAUGAGGAUCACCCAUGUGUCCUACCGG [Mat - Exclusion 6 - Eli Mod - D38] (Eterna round: R97, puzzle: Exclusion 6)	69.6 nM	–	79.8 nM	–	–	–
AAUUAGUGAGGAUAUUUUAACAGUGGUAGUAGACAGUGGAUGAAGAAGGCACAUGAGGAUCACCCAUGUUAUAA [EX4 #55] (Eterna round: R97, puzzle: Exclusion 4)	164 nM	–	147 nM	–	–	–
UUAGAGUCAGGAUAUGCAGCUCCCUGUAGGGCCGAACAGCAGUAGAAGGGACAUGAGGAUCACCCAUGUGAUAG [Eternabot (L2) Solution 52] (Eterna round: R97, puzzle: Exclusion 4)	86.1 nM	–	81.5 nM	–	–	–
UACAUGAGGAUCACCCAUGUUUUGUCGUGUAUGGUAUUUAUCUAGGAUAUCAAUUUAGUUAGUUAUGAGAAGGAGAAUAUUAAU [JMF's solution 76] (Eterna round: R96, puzzle: Exclusion NG 3)	48 nM	21.1 nM	43.8 nM	–	–	–
GUGGGUCCUCACGGUGCUACAUGAGGAUCACCCAUGUGGAUUGAGGAUAUCGUAACCCUACGGGACGAGAAGGCAGUUUACUGU [Ex NG3 #100] (Eterna round: R96, puzzle: Exclusion NG 3)	48.5 nM	14.7 nM	23.1 nM	–	–	–
UUGUGCACGCUGCGAUCCUACAUGAGGAUCACCCAUGUGGUCUGGUGGCGUGGGUCACCGGACUUGGCUCGUCUUGU [salish99_S_TOV1_R5_080] (Eterna round: R97, puzzle: Sensor, turn-off variant 1)	69.6 nM	–	80.8 nM	–	–	–
GAUAGAGAGCAGGAUAUCAUAGAAAUGUAUGAAUGAGAAGGGCUCACAUGAGGAUCACCCAUGUGGUCCUAGAU [JL Dibiri mod 19] (Eterna round: R96, puzzle: Exclusion 6)	–	23.4 nM	–	–	–	–
CAAAAGGAAGGAUAUACAUGUUAAUUAUCCGAAGAUGUCGUACAUGAGGAUCACCCAUGUAGAAGGUCCAAAAC [Tiesbiused] (puzzle: Exclusion 2)	–	–	–	27.1 nM	–	–

Sequence	apparent KD of MS2 coat protein (input ligand: FMN 200 uM)	apparent KD of MS2 coat protein [1]	apparent KD of MS2 coat protein (input ligand: none)	apparent KD of MS2 coat protein [2]	apparent KD of MS2 coat protein [3]	apparent KD of MS2 coat protein [4]
CCGAGGUGGCGGUCCUAUGACAUGAGGAUCACCCAUGUACCUCGCCACAAGCUCUUUGCUCAUCUUAUAGUUCUCGG [Onlaor] (Eterna round: R96, puzzle: Sensor v3, turn-off variant 1)	19.9 nM	132 nM	24.5 nM	–	–	–
UAGCAUUGCCUUUGGUAGUGCUAUACAUGAGGAUCACCCAUGUAGGAUAUGGUCGGCUUUGCUGACCAGAAGGACAUGUGUAUU [MOD2 ENG3 1.04 by JL] (Eterna round: R96, puzzle: Exclusion NG 3)	159 nM	91.5 nM	93.1 nM	–	–	–
ACUUAUUGAGGAUAUACAUAGAUUUACAUGAGGAUCACCCAUGUUCCUCUAUGUAUAUAUGUAGAAGGCAGAAGAA [JL-ex5-4.32 Malcolm mod] (Eterna round: R97, puzzle: Exclusion 5)	26.7 nM	–	15.7 nM	–	–	–
CCAGCGGACAAAGGAUAUUGCGGUGGCCGGCUCGGCGUACCGAGCCUACAUGAGGAUCACCCAUGUAAGAAGGUUGUCGUAGGA [Mat - Exclusion NG 2 - Mod of JL - D72] (Eterna round: R96, puzzle: Exclusion NG 2)	72.2 nM	12.2 nM	22.7 nM	–	–	–
AACUCAUGUUCAGGAUAUCGCGUUCCAAAGACAUGAGAAGGGAACAUGAGGAUCACCCAUGUGCCCGGUCUCAGACCGGGCUUC [Legebi] (Eterna round: R96, puzzle: Exclusion NG 1)	272 nM	71 nM	97.1 nM	–	–	–
ACAAAGGAUACAGGAUAUCGCGUACAAGUGCAGCGAGAAGGGUAUUCUAUGCGCUAUCCGACAUGAGGAUCACCCAUGUGGUCC [Eternabot solution 47] (Eterna round: R96, puzzle: Exclusion NG 1)	417 nM	851 nM	366 nM	–	–	–
CCAGUGUGCUUCAGGACAUGAGGAUCACCCAUGUUCGCAAAAUAGGAUAUUGGGUGUAGGCCGCGCAAGAAGGGUUAUGCGAAC [Disobeus] (Eterna round: R96, puzzle: Exclusion NG 3)	117 nM	79.8 nM	83.4 nM	–	–	–
GAGCACUGCCGAGGAUAUCCACAUGAGGAUCACCCAUGUAGUGAAAAGUCCCAGUAGAACCAAAUGGAGAAGGUGGCAAGAUAU [Eternabot solution 21] (Eterna round: R96, puzzle: Exclusion NG 2)	23.2 nM	20 nM	17.9 nM	–	–	–
GUAAAGUGAGGAUAUGGUAAAGUAAGUAUUUAGUAAGUAAUCCAGAAGGCACAUGAGGAUCACCCAUGUAAAUG [Mat - Exclusion 4 - D98] (puzzle: Exclusion 4)	–	–	–	29.2 nM	–	–
ACCUUACAUGAGGAUCACCCAUGUCAGGAUAUCUCGGGCGGCUGAGGACCAGCCGCCCAGAGAAGGGACGAGGA [Leleusarra] (puzzle: Exclusion 1)	–	–	–	12.5 nM	–	–
AAUAAUUGUGACUUGGGUGACAUGAGGAUCACCCAUGUCACAAGCUUGUUGCUCGUCUUAUAAUUAACCCAUGUCAC [LRO Sensor-off var1-25 mod of Stov1-13-A1 by Brourd] (Eterna round: R97, puzzle: Sensor, turn-off variant 1)	48.1 nM	–	40.9 nM	–	–	–
GGGAAGUGAGGAUAUAUGAGAGAGGCUGGACCGGAUGAGAAGUAGAAGGCACAUGAGGAUCACCCAUGUAGGGA [JR_Exclu4_Sub026] (puzzle: Exclusion 4)	–	–	–	152 nM	130 nM	209 nM
GGUGCGUAUGUGAGGAUAUGCUGGUCCUUGGAUCAGCAGAAGGCACAUGAGGAUCACCCAUGUGGUGUCGUGCC [salish99_Bmod_Ex4_019] (Eterna round: R96, puzzle: Brourd's mod of Exclusion 4)	132 nM	741 nM	1050 nM	–	–	–
GAUUAUGCGAGCUUUAGGGACAUGAGGAUCACCCAUGUUCGUCUUAUUGGUCUGAAUACACUGACAUACCUAAAUCU [JMF 56] (puzzle: Sensor v3, turn-off variant 1)	–	–	–	21.8 nM	16.6 nM	15.9 nM
CAUAGUUACACAGGAUAUAGUACAUGAGGAUCACCCAUGUAAUAAAUGAGAAUUUCGAAUGUAUACUAGAAGGGUGAAAUCUAC [Ostracism 54 - Jieux - Exclusion NG 2] (Eterna round: R96, puzzle: Exclusion NG 2)	206 nM	144 nM	171 nM	–	–	–
UUAAAUCAUGUAGGAUAUGCGUGGCGAAGCUAUGCAGAAGGACAUGAGGAUCACCCAUGUCUUUCCGUCUGCGUACAGAUGGAA [JL Eng1 1.08 mod 2] (Eterna round: R96, puzzle: Exclusion NG 1)	259 nM	19.8 nM	24.8 nM	–	–	–
